Source: the supplement of paper PMC9170038

Test system: K4 kissing-loop RNA reporter
Test: apparent KD of K4 kissing-loop reporter; higher = weaker reporter binding
Conditions: Eterna round: R107
Description: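 RNA-MaP round R107: designed RNA switches with theophylline, tryptophan, arginine or FMN aptamers are transcribed on-chip within common flanks. They are titrated with a labelled K4 kissing-loop RNA reporter in RNA-MaP buffer (100 mM Tris pH 7.5, 80 mM KCl, 4 mM MgCl2), without ligand or with the indicated ligand. Median apparent KD per design.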

[1] = input ligand: theophylline 20 uM
[2] = input ligand: tryptophan 2.4 mM
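Also: bound reporter read as fluorescence of individual clusters on recovered sequencing chips by microscopy, with normalized cluster intensities fitted with a binding model.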

Sequence | apparent KD of K4 kissing-loop reporter (input ligand: FMN 200 uM) [nM] | apparent KD of K4 kissing-loop reporter (input ligand: arginine 13.2 mM) [nM] | apparent KD of K4 kissing-loop reporter (input ligand: none) [nM] | apparent KD of K4 kissing-loop reporter [1] [nM] | apparent KD of K4 kissing-loop reporter [2] [nM]
AGACUAUCGUCAAAGACGGUAGUCAAAAGUGAGGAUAUAGUGAUGUUUAGAAGGCACUAAGACUGUAUCGAAUAGAUACGGUCAA [FmnA 1 #K4BetweenAptamer #OpenEnded] | 2120 | 1320 | 2120 | 1250 | 1920
AGACUUCACCGAAGGAGCGACGUAGCCUAGUGAUGUUAGGCAAGAGAGAAAUCUCUUAUACGUCAGGUAGGUCGCGGUGAAGUCA [Omei KL Arginine B SS C v2] | 197 | 118 | 162 | 160 | 150
AGACUUCACCGAAGGAGCGACGUGGCCUAGUGAUGUUAGGCACGAGAGAAAUCUCGUAUACGUCAGGUAGGUCGCGGUGAAGUCA [Omei KL Arginine B SS C v6] | 204 | 142 | 165 | 160 | 180
AGACUUCACCGAAGGAGCGACGUGGUCUAGUGAUGUUAGACACGAGAGAAAUCUCGUAUACGUCAGGUAGGUCGCGGUGAAGUCA [Omei KL Arginine B SS C v9] | 147 | 119 | 146 | 117 | 133
AGAGAUAAGGCGGCCGCCACUAAGAUGAAACUAACGGUCAAGUGAUGUUUGCGGUUACAGUUCAGUAGGACCGGGCCGAGUAAAU [theeternabot_sameState_KL_Trp_B_47] | 512 | 403 | 407 | 412 | 357
AGAGAUAUAUGAGGAUAUGAGAUAGUUAAUGAGUGAGUUAUAGUGUAGUUUGGUUAGUGAUGUUAUUUAGAAGGCGUGAGUGAUG [reefmullin] | 140 | 76.7 | 131 | 107 | 83.3
AGAGUACGAAAGUACUCCUCUACACACUGUCGAGGACCGGUACGGCCGCCACUCGAGUUGAGUGAUGUUCGAUAGUGUGUAGAGA [Omei KL Tryp A SS C v4] | 66.4 | 57.3 | 30 | 104 | 142
AGAGUUAUAUGAGGAUAUGGGAUAGUAAAUGAGUGAGUUAUAGUGUAGUUUGUUUAGUGAUGUUAUUUAGAAGGCGUGAGUGAUG [dgnnmullin] | 193 | 114 | 100 | 113 | 86.4
AGAGUUUUAUGAGGAUAUGAGAUAGUUAAUGAGUGAGUUAUAGUGUAGUUUGUUUAGUGAUGUUAUUUAGAAGGCGUGAGUGAUG [ssxsmullin] | 151 | 95.9 | 122 | 132 | 84.4
AGAUGUUUAGCUCAAAGAACGAAAAUGGAAGGAGCGUGCGAAAGCACAGGUAGGUCGCCAGUGAUGUUGGAACCUGAGCAUCAAA [#SwitchBubble 16 #K4Late] | 316 | 274 | 262 | 244 | 230
AGCAGUCACUCGAAAACCAUCGAAGAUGGACGAGGACCGGUACGGCCGCCACUCGGAGUGAUGUUCCGAAGACUGCAAAAUAAAA [#SwitchBubble 16] | 380 | 402 | 433 | 346 | 435
AGCCACGACGCGGCCGCCACUGCCAUUAAACGUAAGGCAAAUCUAAUCUUCGAGUGAUGUUCGGGCAGGACCGGGCGGAGACUUG [theeternabot_sameState_KL_Trp_B_18] | 636 | 300 | 478 | 772 | 371
AGCCGAAAGGCGAGUGCUGUCACUCCGGAAGGAGCGCUCAAAAGAGCAGGUAGGUCGCCGGAGUGAUGUUCCGGUGCAGCACUCA [Omei KL Arginine A Exc B v4] | 594 | 408 | 580 | 751 | 623
AGCGCUGCCUGAGGAUAUAGAGACGAGUGAUGUUCGUGGAUUGAUACCAGUGAUGUUGGUCUAUUUCUAGAAGGCAGGCGAUCGU [Exclusion FMN B GF 3] | 131 | 85.6 | 103 | 105 | 103
AGCGUCCCUACGGCCGCCACUGGGAGUGAUGUUCCCAGGUUAGGCCUGAGGAUACUAUGGAUCGCCAGGACCGGGUAGCGACCAA [Zaarin] | 93.4 | 71.8 | 85.4 | 97.2 | 83.5
AGCUCAGAGUGACUCGAUAAGAGUCACAAACGAGGACCGGUACGGCCGCCACUCGAAAUAAUGAGAGUGAUGUUCUCGCUGAGCA [#SwitchBubble 2 #StaticStem #K4Late] | 221 | 98.6 | 89 | 145 | 793
AGGAGUGAUGUUCCUACAUACACGGUCCGACGAGGACCGGUACGGCCGCCACUCGCGUCCCAGUGAUGUUGGGAUUUGGCGUACG [Exclusion Tryptophan A GF 17] | 162 | 155 | 155 | 171 | 154
AGGAUAUAGUGAUGUUAUAUAAGAAGAAAACGAGGACCGGUACGGCCGCCACUCGAAGCGGCUACUAAGAGGGAAAGAAGAGGAA [ExTryptoA.A] | 174 | 181 | 215 | 294 | 143
AGGAUCCGUCGACAAAAGUCGACAUAAACCGAGGAUAUGACGAAAGUCAGAAGGUGGUCAUAAGACCAGUGAUGUUGGUGGAUCC [FmnA 14 #SwitchBubble #K4Late] | 1250 | 282 | 494 | 318 | 305
AGGAUGUAGUGAUGUUAUAUAAGAAGUAAACGAGGACCGGUACGGCCGCCACUCGAAACGGCUACUAGCGCGUUGCGAGGUGUGC [ExTryptoA.Cf] | 425 | 475 | 808 | 510 | 402
AGGAUGUAGUGAUGUUAUAUAAGAAGUAAACGAGGACCGGUACGGCCGCCACUCGAAGCGGCUACUAGCGUGUUGCGAGGUGCGC [ExTryptoA.Cd] | 370 | 324 | 229 | 230 | 197
AGGCACGAGCAAGGAUAUCGAGUAGAGUGAUGUUCUGCCUGGGUUGGCUCGGAAGGGCCUUCCCAGCGAGAAGGUGCUCGUGCCU [#2 Same State - FMN A Attempt #16 (HarryS)] | 189 | 637 | 590 | 674 | 493

Sequence | apparent KD of K4 kissing-loop reporter (input ligand: FMN 200 uM) [nM] | apparent KD of K4 kissing-loop reporter (input ligand: arginine 13.2 mM) [nM] | apparent KD of K4 kissing-loop reporter (input ligand: none) [nM] | apparent KD of K4 kissing-loop reporter [1] [nM] | apparent KD of K4 kissing-loop reporter [2] [nM]
AGGCACGAGCAAGGAUAUCGAGUAGAGUGAUGUUCUGCCUGGGUUGGCUCGUAAGAGCCUUCUCAGCGAGAAGGUGCUCGUGCCU [#2 Same State - FMN A Attempt #20 (HarryS)] | 217 | 511 | 544 | 511 | 944
AGGCGGCAUAAUUGACUGAAAAGAAAUUAACGAGGACCGGUACGGCCGCCACUCGAACACCAGUGAUGUUGGUAUGGGAUAAUUU [Exclusion Tryptophan A GF 18] | 91.6 | 62.7 | 52.9 | 169 | 47
AGGGAACGCACGGAUACCAGACUCAUAGUGAUGUUGUGGGUAUAAAUUAGCGCAUACACAGUCCCUUGGCAGCCGCUGAAUGGCC [theeternabot_exclusion_KL_Theo_B_1] | 829 | 644 | 971 | 835 | 505
AGGGACUCUUCGGAGUCCCGGUCAAGGGAUACCAGUGAUGUUGGUCACCCUUGGCAGCCCAGAAACCAAGCCACCAAAGGUGGCA [Omei KL Theo A Exc A v3] | 117 | 97.9 | 97.3 | 103 | 107
AGUACAAUGGCGGCCGCCACUCAACGCAGAUCAAAGAUCUGCGAUCACUCAGUGAUGUUGAGUGAGAGGACCGGGCCUUUGUACA [Omei KL Tryp B SS B v6] | 354 | 272 | 307 | 311 | 135
AGUACAAUGGCGGCCGCCACUCAACGCAGAUCAAAGAUCUGCGUUCACUCAGUGAUGUUGAGUGAGAGGACCGGGCCUUUGUACA [Omei KL Tryp B SS B v5] | 221 | 180 | 190 | 170 | 141
AGUAGUUGGGCGGCCGCCACUGGAACAGCUUUGUCAAAGACAGAGCACUAGAGUGAUGUUCUAGCUAGGACCGGGUCCAACUACA [whbob_SS_Tryp_B_t17] | 460 | 206 | 533 | 503 | 991
AGUAUGUAAUAUGGCAUAUUUAGAACUGAAGGAGCGCCGAAUAAGGCAGGUAGGUCGCGGUUUUAUGAGUGAUGUUCUUGUUUAA [KL-SSArg-A24] | 156 | 125 | 149 | 329 | 111
AGUCCACUCUAAAGAGUGGACCUAAGGGAUACCAGUGAUGUUGGUCACCCUUGGCAGCCCGCUGUCAUCGAUAAAGAUGGCAGAA | 136 | 121 | 120 | 147 | 120
AGUGAUGUAUGGCGGUGUGUCACUUAAAAUCAGGAUAUAUAAACAAAUAGAAGGGAUGGCGGAGUGAUGUUCCGCCGGCCGCCAU [FMN A Exl V2] | 173 | 147 | 157 | 165 | 159
AGUGCUAUGACGGCCGCCACUGAUUACCAGUGAUGUUGGUAGUCCAUUUACGACUUCCUGAUAACCAGGACCGGGUCAUAGGUCG [Tryp B Ex t2] | 702 | 613 | 807 | 450 | 201
AGUGGACGUUACCGGAGUGAUGUUUCGGAUACCAGACACGAAAGUGUCCCUUGGCAGCCGUAGUGAUGUUACGGAGUUCACUAAA [KL-XTheo-A12 #KL 2] | 125 | 61.5 | 103 | 88.7 | 85.1
AGUGUUAGGUUAGAUACCAGCCGUCUGUAGAUAAUCCUCAGACCGCCAGUGAUGUUGGCAGGCCCUUGGCAGCUAACAGAACAGA [Orbediqu] | 238 | 206 | 210 | 154 | 214
AGUGUUAGGUUAGAUACCAGCCGUCUGUGAGUAACCCACAGACCGCCAGUGAUGUUGGCAGGCCCUUGGCAGCUAACAGGACAGA [Anesarerza] | 211 | 226 | 210 | 152 | 211
AGUUAUGUAUCAGGAUAUUAGUGAUGUUUGUUUUUGUUAGUGAUGUUGAUAUUUGUUUUAUGUAUUUAAGAAGGGAUUGAGAUGU [qsszmullin] | 68.2 | 20.5 | 39.1 | 29.4 | 52.4
AUACGCGAUAGCGUAUAUAACUUUUCAGAAGGAGCGUGGAAGUACACAGGUAGGUCGCUGAAUAUAGGACUAGUGAUGUUAGUUA [JR_Nu_SSArginiA_Sub025] | 195 | 220 | 235 | 218 | 186
AUAGUGAGCUCGGCCGCCACUCCACUAUGUCAACAGUAGCUCUGUCAUAACCAGUGAUGUUGGUUGAGGACCGGGAGUUAAGACU [theeternabot_exclusion_KL_Trp_B_34] | 193 | 164 | 198 | 195 | 201
AUCAUUAGUUCGGCCGCCACUCCAGUGAUGUUGGAGGGACGCAUAAUAUGCGCGCGGCCAACUAGGAGGACCGGGAACUUUAAGC [Intionge] | 120 | 122 | 118 | 126 | 103
AUGACGGGUAGUGAUGUUAUCCACGAUGGGAAGGAUAUCAACCGUGUGAGAAGGUCCUUAUCGGUGCGGCACAUGCAGGUACUAC [theeternabot_sameState_KL_FMN_A_41] | 215 | 264 | 346 | 452 | 268
AUGGACUCUUCGGAGUCCGCCUUAAGGGAUACCAGUGAUGUUGGUCACCCUUGGCAGCCUAGAAAGGAAGCCACCAAAGGUGGCA [Omei v1 mod #OpenEnded #Sliding] | 105 | 114 | 128 | 160 | 101
AUGGGUUGUUGAAGGAGCGCCGCCAGUGAUGUUGGGAGUUAGAUACCAGUGAUGUUGGGCCGGCAGGUAGGUCGCGGCGAUUUAU [Exclusion Arginine B GF 19] | 347 | 170 | 484 | 332 | 344
